Data: PMC9733425 (Journal of structural biology, 2022)

Molecular target: the molecule itself
Experiment: SEC-MALS

B1: SAM1 domain of SASH1 (WT human SAM1::6xHis, residues 627-703) (domain or fragment, UniProt O94885 627-703, looked up)
chain: RRKGRPPQPKSVEDLLDRINLKEHMPTFLFNGYEDLDTFKLLEEEDLDELNIRDPEHRAVLLTAVELLQEYDSNSDQ
stoichiometry N: 4
